The record followed here is patent US20260167721A1 (ABLEXIS, published 2026).

Where a chain is given by its changes, count along the chain named. Some results are limits rather than exact numbers.

Experiment [1] concerns the target T1, recombinant human CD3 epsilon/gamma heterodimer (human, UniProt P07766 23-126; P09693 23-116).
T1 construct: Recombinant protein in solution (200-50 nM) in the Octet assay; also called hCD3 E/G
Nature of the experiment: Octet BLI, mAb on FAB2G sensor, hCD3 E/G 200-50 nM; R^2 0.96. A general note: Biolayer interferometry detects binding as a change in optical thickness at a sensor tip.

Experiment [2] deals with T2, recombinant human CD3 epsilon/delta heterodimer (human, UniProt P07766 23-126; P04234 22-105).
T2 construct: Recombinant protein in solution (200-50 nM) in the Octet assay; also called hCD3 E/D; human CD3E/D
Briefly: Octet BLI, mAb on FAB2G sensor, hCD3 E/D 200-50 nM; R^2 0.96.
Experimental: (§1) Samples were evaluated by flow cytometry analysis against Jurkat and human Pan-T cells (FIG. 1B) as well as by Octet against recombinant human CD3 proteins to evaluate apparent affinities and binding off-rates (Table 6, infra).

The target in experiment [3] is T3, human CD3 (TCR/CD3 complex) on the cell surface (human, UniProt P07766 23-207; P09693 23-182; P04234 22-171; P20963 22-164).
T3 construct: whole, on cells; also called CD3 on Pan-T cells; CD3 on Jurkat WT cells
Briefly: flow cytometry, Jurkat WT cells, 1 ug/mL. On the technique in general: Flow cytometry measures light scatter and fluorescence of single cells or particles in a stream.

The target of experiment [4] is T3, human CD3 (TCR/CD3 complex) on the cell …. Briefly: flow cytometry, gMFI Jurkat WT over Jurkat TCRb KO, 1 ug/mL.
Experiment [5] shares this target. Nature of the experiment: flow cytometry, Pan-T cells, 10 ug/mL.
For experiment [6] the target is unchanged. Briefly: flow cytometry, Pan-T cells, 1 ug/mL.
The target of experiment [7] is T4, recombinant CD3 proteins (UniProt P07766 23-126).
T4 construct: elsewhere it uses human CD3 E/D and E/G heterodimers
Briefly: Octet BLI, recombinant CD3; Full R^2 0.995.

Experiment [8] deals with T3, human CD3 (TCR/CD3 complex) on the cell …. Nature of the experiment: flow cytometry, Jurkat WT cells, 10 ug/mL.
Experiment [9] has the same target. Briefly: flow cytometry, gMFI Jurkat WT over Jurkat TCRb KO, 10 ug/mL.
Experiment [10] addresses T4, recombinant CD3 proteins. Nature of the experiment: Octet BLI, recombinant CD3; Full R^2 0.997.
Experiment [11] has as its target T4, recombinant CD3 proteins. Briefly: Octet BLI, recombinant CD3; Full R^2 0.000*.
The target in experiment [12] is T2, recombinant human CD3 epsilon/delta …. Briefly: Octet BLI, mAb on FAB2G sensor, hCD3 E/D 200-50 nM; R^2 0.94.
Experimental: as §1
Experiment [13] deals with T1, recombinant human CD3 epsilon/gamma …. Nature of the experiment: Octet BLI, mAb on FAB2G sensor, hCD3 E/G 200-50 nM; R^2 0.94.
Experimental: as §1

T2 sequence (P07766 23-126, stated change not applied, chain 1 of 2): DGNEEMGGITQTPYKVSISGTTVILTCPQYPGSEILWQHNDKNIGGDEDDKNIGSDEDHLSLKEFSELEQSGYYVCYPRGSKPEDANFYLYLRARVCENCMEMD
T2 sequence (P04234 22-105, stated change not applied, chain 2 of 2): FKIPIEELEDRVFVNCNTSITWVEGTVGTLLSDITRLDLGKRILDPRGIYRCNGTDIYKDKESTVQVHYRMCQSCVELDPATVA
T1 sequence (P07766 23-126, chain 1 of 2): as the sequence (P07766 23-126, stated change not applied, chain 1 of 2) above
T1 sequence (P09693 23-116, chain 2 of 2): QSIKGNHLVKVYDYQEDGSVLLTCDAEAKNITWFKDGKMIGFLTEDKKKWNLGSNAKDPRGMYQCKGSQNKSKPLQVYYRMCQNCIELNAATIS
T4 sequence (P07766 23-126): as the sequence (P07766 23-126, stated change not applied, chain 1 of 2) above
T3 sequence (P07766 23-207, chain 1 of 4): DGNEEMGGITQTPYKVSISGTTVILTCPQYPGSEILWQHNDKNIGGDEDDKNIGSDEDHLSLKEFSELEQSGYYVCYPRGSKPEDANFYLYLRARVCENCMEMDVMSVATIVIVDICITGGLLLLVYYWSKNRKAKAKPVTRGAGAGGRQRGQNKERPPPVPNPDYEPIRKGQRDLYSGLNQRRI
T3 sequence (P09693 23-182, chain 2 of 4): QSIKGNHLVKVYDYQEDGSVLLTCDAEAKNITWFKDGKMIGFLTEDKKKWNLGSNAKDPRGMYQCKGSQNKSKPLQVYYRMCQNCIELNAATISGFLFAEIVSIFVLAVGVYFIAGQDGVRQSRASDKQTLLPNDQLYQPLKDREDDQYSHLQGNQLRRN
T3 sequence (P04234 22-171, chain 3 of 4): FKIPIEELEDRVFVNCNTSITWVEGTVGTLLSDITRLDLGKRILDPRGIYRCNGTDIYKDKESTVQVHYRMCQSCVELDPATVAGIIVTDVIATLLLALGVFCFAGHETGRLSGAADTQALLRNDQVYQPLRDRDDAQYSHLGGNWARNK
T3 sequence (P20963 22-164, chain 4 of 4): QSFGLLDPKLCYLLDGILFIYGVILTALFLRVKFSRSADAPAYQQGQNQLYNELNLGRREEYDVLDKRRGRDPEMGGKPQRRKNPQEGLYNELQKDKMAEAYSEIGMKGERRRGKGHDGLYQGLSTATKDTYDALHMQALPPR

B1: ABL-CD3-33 (antibody, V domains shown)
VH: EVQLVESGGGLVKPGGSLRLSCAASGFTFSSYSMNWVRQAPGKGLEWVSSISRSSSYIYYADSVKGRFTISRDNAKNSLYLQMNSLRAEDTAVYYCAREPPTLGMDYWGQGTLVTVSS
VL: NFMLTQPHSVSESPGKTVTISCTRSSGSIASNYVQWYQQRPGSSPTTVIYEDNQRPSGVPDRFSGSIDSSSNSASLTISGLKTEDEADYYCQSYYNSNRVFGGGTKLTVL
notes: Chimeric hybridoma mAb: human V, CH1, upper hinge; mouse middle hinge, CH2, CH3
In the case of B1, in experiment [1], the equilibrium dissociation constant (Kd) (as a rule, the constant that tells how readily two partners part at equilibrium) stood at 60 nM; the koff (as a rule, the rate constant with which the complex falls apart) worked out at 0.0155 s⁻¹; the kon – broadly, a measure of how fast the partners come together – was found to be 259000 M⁻¹ s⁻¹. Also, in experiment [2], the Kd amounted to 56.2 nM, the Response came out at 0.33, the koff came to 0.0206 s⁻¹ and the kon stood at 366000 M⁻¹ s⁻¹.

B2: CD3 × CD33-BspAb126 (bispecific antibody)
chain 1: QVQLQESGPGLVKPSETLSLTCTVSGGSINSYYWSWIRQPAGKCLEWIGRIYTSGSTNYNPSLKSRVTMSVDTSKKQFSLKLSSVTAADTAVYYCARERISRLYFDYWGQGILVTVSSGGGGSGGGGSGGGGSGGGGSNFMLTQPHSVSESPGKTVTISCTRSSGSIASNYVQWYQQRPGSSPTTVIYEDNQRPSGVPDRFSGSIDSSSNSASLTISGLKTEDEADYYCQSYDRSNRVFGCGTKLTVLDKTHTCPPCPAPEFEGGPSVFLFPPKPKDTLMISRTPEVTCVVVDVSHEDPEVKFNWYVDGVEVHNAKTKPREEQYNSTYRVVSVLTVLHQDWLNGKEYKCKVSNKALPASIEKTISKAKGQPREPQVYTLPPCREEMTKNQVSLWCLVKGFYPSDIAVEWESNGQPENNYKTTPPVLDSDGSFFLYSKLTVDKSRWQQGNVFSCSVMHEALHNHYTQKSLSLSPGK
chain 2: EVQLVQSGAEVKKPGSSVKVSCKASGYTITDSNIHWVRQAPGQSLEWIGYIYPYNGGTDYNQKFKNRATLTVDNPTNTAYMELSSLRSEDTAFYYCVNGNPWLAYWGQGTLVTVSSASTKGPSVFPLAPSSKSTSGGTAALGCLVKDYFPEPVTVSWNSGALTSGVHTFPAVLQSSGLYSLSSVVTVPSSSLGTQTYICNVNHKPSNTKVDKRVEPKSCDKTHTCPPCPAPEFEGGPSVFLFPPKPKDTLMISRTPEVTCVVVDVSHEDPEVKFNWYVDGVEVHNAKTKPREEQYNSTYRVVSVLTVLHQDWLNGKEYKCKVSNKALPASIEKTISKAKGQPREPQVCTLPPSREEMTKNQVSLSCAVKGFYPSDIAVEWESNGQPENNYKTTPPVLDSDGSFFLVSKLTVDKSRWQQGNVFSCSVMHEALHNRFTQKSLSLSPGK
chain 3: DIQLTQSPSTLSASVGDRVTITCRASESLDNYGIRFLTWFQQKPGKAPKLLMYAASNQGSGVPSRFSGSGSGTEFTLTISSLQPDDFATYYCQQTKEVPWSFGQGTKVEVKRTVAAPSVFIFPPSDEQLKSGTASVVCLLNNFYPREAKVQWKVDNALQSGNSQESVTEQDSKDSTYSLSSTLTLSKADYEKHKVYACEVTHQGLSSPVTKSFNRGEC
With B2, the gMFI in experiment [3] was found to be 15700 gMFI; in experiment [5], 161000 gMFI; in experiment [6] it was 56000 gMFI; in [8] it was 26000 gMFI. Moreover, the entries for the “Jurkat WT/KO (Fold)” value in experiment [4] and in experiment [9] were 5.3 fold and 8.8 fold, respectively. For the same molecule, the “% Positive” value in experiment [5] worked out at 99.7%; in [6] it was 98.3%. Moreover, in the experiment with recombinant CD3 proteins [7], the Kd amounted to 78.4 nM. Also, the koff with recombinant CD3 proteins [7] is 0.0117 s⁻¹. Also, in the experiment with recombinant CD3 proteins [7], the kon worked out at 149000 M⁻¹ s⁻¹.

B3: CD3 × CD33-BspAb116 (bispecific antibody)
chain 1: NFMLTQPHSVSESPGKTVTISCTRSSGSIASNYVQWYQQRPGSSPTTVIYEDNQRPSGVPDRFSGSIDSSSNSASLTISGLKTEDEAYYYCQSFDSSNRVFGCGTKLTVLGGGGSGGGGSGGGGSGGGGSQVQLQESGPGLVKPSQTLSLTCTVSGGSISSGGYYWSWIRQHPGKCLEWIGYIYYSGSTYYNPSLKSRVTISVDTSKDQFSLKLSSVTAADTAVYYCARERKTSLPFDIWGQGTMVTVSSDKTHTCPPCPAPEFEGGPSVFLFPPKPKDTLMISRTPEVTCVVVDVSHEDPEVKFNWYVDGVEVHNAKTKPREEQYNSTYRVVSVLTVLHQDWLNGKEYKCKVSNKALPASIEKTISKAKGQPREPQVYTLPPCREEMTKNQVSLWCLVKGFYPSDIAVEWESNGQPENNYKTTPPVLDSDGSFFLYSKLTVDKSRWQQGNVFSCSVMHEALHNHYTQKSLSLSPGK
chain 2: B2 chain 2
chain 3: B2 chain 3
With B3, in the experiment with recombinant CD3 proteins [10], the Kd is 163 nM, the koff was found to be 0.0168 s⁻¹ and the kon was 103000 M⁻¹ s⁻¹.

B4: CD3 × CD33-BspAb79 (bispecific antibody)
chain 1: B2 chain 1 with N30S, T53A, N58Y, K76N, R99K, I100R, I112T, A225G
chain 2: B2 chain 2
chain 3: B2 chain 3
Regarding B4, in the experiment with recombinant CD3 proteins [10], the Kd came out at 456 nM, the koff was 0.0829 s⁻¹ and the kon turned out to be 182000 M⁻¹ s⁻¹.

B5: CD3 × CD33-BspAb124 (bispecific antibody)
chain 1: not shown
chain 2: B2 chain 2
chain 3: B2 chain 3
Turning to B5, in the experiment with recombinant CD3 proteins [11], the Kd was less than 0.001 nM, the koff is less than 1e-07 s⁻¹ and the kon stood at 12500 M⁻¹ s⁻¹.

B6: ABL-CD3-29 (antibody, V domains shown)
VH: EVQLVQSGAEVKKPGESLKISCKGSGYSFISYWIAWVRQMPGKGLEWMGIIYPGDSETRYRPSFQGQVTISADKSINTAYLQWSSLKAADTAMYYCARQGAYDGFDIWGQGTMVTVSS
VL: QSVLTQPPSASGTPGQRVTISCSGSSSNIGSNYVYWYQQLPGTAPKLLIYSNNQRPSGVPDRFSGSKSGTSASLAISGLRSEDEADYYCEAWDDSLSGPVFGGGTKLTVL
notes: as for B1
B6: in [12], the Kd was determined as 2.63 nM, the koff amounted to 0.000816 s⁻¹ and the kon stood at 310000 M⁻¹ s⁻¹. In experiment [13], the Kd was 2.5 nM, the Response came to 0.44, the koff is 0.000852 s⁻¹ and the kon was found to be 341000 M⁻¹ s⁻¹.
